Biological target: IL-28 receptor (IL-28 receptor alpha subunit with endogenous CRF2-4) on transfected 293 HEK cells (human)
Assay: cell-based or functional assay

Chain of IL-28 receptor (IL-28 receptor alpha subunit with endogenous CRF2-4) on transfected 293 HEK cells (human) (Q8IU57 21-520): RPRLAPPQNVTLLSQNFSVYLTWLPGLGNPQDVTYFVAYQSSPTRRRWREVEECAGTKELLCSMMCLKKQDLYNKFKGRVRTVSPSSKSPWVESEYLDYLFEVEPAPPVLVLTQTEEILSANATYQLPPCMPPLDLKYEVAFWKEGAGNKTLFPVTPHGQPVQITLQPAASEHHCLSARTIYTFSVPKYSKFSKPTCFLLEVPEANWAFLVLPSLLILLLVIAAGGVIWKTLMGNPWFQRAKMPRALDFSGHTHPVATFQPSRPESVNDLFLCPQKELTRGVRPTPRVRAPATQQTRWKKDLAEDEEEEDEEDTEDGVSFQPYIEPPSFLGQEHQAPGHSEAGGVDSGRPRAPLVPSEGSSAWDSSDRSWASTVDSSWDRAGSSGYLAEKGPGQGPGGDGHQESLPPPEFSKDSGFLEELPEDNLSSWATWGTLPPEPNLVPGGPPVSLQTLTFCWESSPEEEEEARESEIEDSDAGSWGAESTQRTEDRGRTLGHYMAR

ISRE-luciferase fold induction over medium alone, 293 HEK cells transfected with ISRE-Luc. and IL-28R; ligand 100 ng/ml (fold induction)	ISRE-luciferase fold induction over medium alone, 293 HEK cells transfected with ISRE-Luc. and IL-28R; ligand 125 ng/ml (fold induction)	Substance
0.5	–	HuIL10 (from UniProt P22301 19-178) (ligand)
–	104	IL-28B (SEQ ID NO:6) (from UniProt Q8IZI9 22-196) (ligand)
–	1	Zcyto10 (from UniProt Q9NYY1 25-176) (ligand)

Reference: patent US20140178333A1
